B1: -24/+15 AAF (dsDNA)
DNA 1: CCCATTCCAACCATCCCACTACCTGTCCATCTTCACTCA
DNA 2: TGAGTGAAGATGGACAGGTAGTGGGATGGTTGGAATGGG
modifications: N-2-acetylaminofluorene adduct on the single G of strand 1 (nt 25); printed strand spans -24 to +14
B2: -24/+24 AAF (dsDNA)
DNA 1: CCCATTCCAACCATCCCACTACCTGTCCATCTTCACTCAACTATCACCC
DNA 2: GGGTGATAGTTGAGTGAAGATGGACAGGTAGTGGGATGGTTGGAATGGG
modifications: N-2-acetylaminofluorene adduct on the single G of strand 1 (nt 25, position 0)
B3: -24*/+24 AAF (dsDNA)
DNA 1: B2 DNA 1
DNA 2: GGGTGATAGTTGAGTGAAGATGGACAGGTAGTGGGATGGT
modifications: N-2-acetylaminofluorene adduct on the single G of strand 1 (nt 25, position 0)

Tests used:
[1] = biological target: T1, coreTFIIH (7 subunits);Rad4-Rad23 (Saccharomyces cerevisiae? (yeast, tfb6 …, UniProt Q00578;P06839;P32776;Q02939;Q04673;Q12004;Q3E7C1;P14736;P32628 …, |)); assay: EMSA; AMP-PNP, 2 mM Mg2+; EMSA: 20 mM HEPES, 100 mM K-acetate, 2 mM Mg-acetate, 5 mM DTT, room temperature 20 min, 250 nM each component, 0.2x TBE agarose gel at 4 C (pH not stated in this buffer); settings: protein: native;recombinant; tags: TAP tags on Tfb4 and Ssl2; TEV-treated;His-purified, thrombin-digested; copies: 1;1;1;1;1;1;1;1;1; label: 32P 5' end (T4 PNK) in EMSA; blunt
[2] = biological target: T2, coreTFIIH (7 subunits);Rad4-Rad23;Rad33 (Saccharomyces cerevisiae? (yeast, tfb6 …, UniProt Q00578;P06839;P32776;Q02939;Q04673;Q12004;Q3E7C1;P14736;P32628;Q04231 …, ||)); assay: EMSA; 100 nM Rad33; Rad4-Rad23 0-100 nM; EMSA: 20 mM HEPES, 100 mM K-acetate, 2 mM Mg-acetate, 5 mM DTT, room temperature 20 min, 250 nM each component, 0.2x TBE agarose gel at 4 C (pH not stated in this buffer); settings: protein: native;recombinant;recombinant; tags: TAP tags on Tfb4 and Ssl2; TEV-treated;His-purified, thrombin-digested;His (HisTrap-purified, pETDuet); copies: 1;1;1;1;1;1;1;1;1;1; label: 32P 5' end (T4 PNK) in EMSA; blunt
[3] = biological target: T1, coreTFIIH (7 subunits);Rad4-Rad23; assay: EMSA; ATP 4 mM, 2 mM Mg2+; EMSA: 20 mM HEPES, 100 mM K-acetate, 2 mM Mg-acetate, 5 mM DTT, room temperature 20 min, 250 nM each component, 0.2x TBE agarose gel at 4 C (pH not stated in this buffer); settings: protein: native;recombinant; tags: TAP tags on Tfb4 and Ssl2; TEV-treated;His-purified, thrombin-digested; copies: 1;1;1;1;1;1;1;1;1; label: 32P 5' end (T4 PNK) in EMSA; 5' overhang on strand 1: 9 nt from printed strands (text says 10 nt)
[4] = biological target: T2, coreTFIIH (7 subunits);Rad4-Rad23;Rad33; assay: glycerol gradient sedimentation; ATP; EMSA: 20 mM HEPES, 100 mM K-acetate, 2 mM Mg-acetate, 5 mM DTT, room temperature 20 min, 250 nM each component, 0.2x TBE agarose gel at 4 C (pH not stated in this buffer); settings: protein: native;recombinant;recombinant; tags: TAP tags on Tfb4 and Ssl2; TEV-treated;His-purified, thrombin-digested;His (HisTrap-purified, pETDuet); copies: 1;1;1;1;1;1;1;1;1;1; label: 32P 5' end (T4 PNK) in EMSA; 5' overhang on strand 1: 9 nt from printed strands (text says 10 nt)

| Binder | binding result [1] | binding result [2] | binding result [3] | binding result [4] |
| --- | --- | --- | --- | --- |
| B1 | binds | – | – | – |
| B2 | binds | binds | – | – |
| B3 | – | – | binds | binds |

From publication PMC8184850, “Cryo-EM structure of TFIIH/Rad4–Rad23–Rad33 in damaged DNA opening in nucleotide excision repair” (Nature Communications, 2021)
